Experimental data reported in patent US20200096514.

Legend:
[1] = tested on: PEG-PPQ5 fluorogenic nanosensor (PPQ5 peptide on PEG-8 40 kDa scaffold)

Substance	in vitro cleavage (fluorescent dequenching) [1]	reversal of FRET-quenched fluorescent signal (cleavage) (LAS-Q)	reversal of FRET-quenched fluorescent signal (cleavage) (ELA-Q)
recombinant human MMP13	PEG-PPQ5 pre- and post-aerosolization was equally sensitive to in vitro cleavage by recombinant MMP13		
recombinant mouse MMP1		Both substrates resist cleavage by MMPI, MMP13, and thrombin	Both substrates resist cleavage by MMPI, MMP13, and thrombin
recombinant mouse thrombin		Both substrates resist cleavage by MMPI, MMP13, and thrombin	Both substrates resist cleavage by MMPI, MMP13, and thrombin
recombinant mouse MMP13		Both substrates resist cleavage by MMPI, MMP13, and thrombin	Both substrates resist cleavage by MMPI, MMP13, and thrombin
